Source: paper PMC4701952, “Evolution of the Plant Reproduction Master Regulators LFY and the MADS Transcription Factors: The Role of Protein Structure in the Evolutionary Development of the Flower” (Frontiers in Plant Science, 2015)
“And” between values parts separate entries of the source, which are not always exact repeats. Identical values can stand only once.

Key:
[1] = target: the molecule itself; experiment: native gel or EMSA; in vitro translated proteins (4 ul TnT mix, not purified) with 5-10 nM DY-682 labelled 121 bp SOC1 promoter DNA with two CArG boxes; complexes seen on DNA, assigned as putative dimer and tetramer
[2] = target: the molecule itself; experiment: native gel or EMSA; in vitro translated proteins (not purified) with Cy5 labelled SOC1 promoter DNA in which CArG box 1 or CArG box 2 is mutated (one site left)
[3] = target: the molecule itself; experiment: SEC; Superdex 200 10/300 GL in Buffer A (30 mM Tris pH 8.0, 300 mM NaCl, 5% glycerol, 2 mM TCEP); oligomeric state against the wild type protein; self-association

B1: SEP3^L115R (natural protein, A. thaliana, UniProt O22456 1-251, looked up)
chain: MGRGRVELKRIENKINRQVTFAKRRNGLLKKAYELSVLCDAEVALIIFSNRGKLYEFCSSSSMLRTLERYQKCNYGAPEPNVPSREALAVELSSQQEYLKLKERYDALQRTQRNRLGEDLGPLSTKELESLERQLDSSLKQIRALRTQFMLDQLNDLQSKERMLTETNKTLRLRLADGYQMPLQLNPNQEEVDHYGRHHHQQQQHSQAFFQPLECEPILQIGYQGQQDGMGAGPSVNNYMLGWLPYDTNSI
notes: also called dimerisation-interface mutant; source: in vitro translated (pSPUTK, Promega SP6 High Yield Expression System), used without further purification
With B1 the “stoichiometry N” value [1] was 2.

B2: SEP3^L171A (natural protein, A. thaliana, UniProt O22456 1-251, looked up)
chain: MGRGRVELKRIENKINRQVTFAKRRNGLLKKAYELSVLCDAEVALIIFSNRGKLYEFCSSSSMLRTLERYQKCNYGAPEPNVPSREALAVELSSQQEYLKLKERYDALQRTQRNLLGEDLGPLSTKELESLERQLDSSLKQIRALRTQFMLDQLNDLQSKERMLTETNKTARLRLADGYQMPLQLNPNQEEVDHYGRHHHQQQQHSQAFFQPLECEPILQIGYQGQQDGMGAGPSVNNYMLGWLPYDTNSI
notes: also called tetramerisation interface mutant; source: in vitro translated (pSPUTK, Promega SP6 High Yield Expression System), used without further purification
B2 was tested, and the “stoichiometry N” value [2] was 4.

B3: SEP3^ΔC (domain or fragment, A. thaliana)
chain: MGRGRVELKRIENKINRQVTFAKRRNGLLKKAYELSVLCDAEVALIIFSNRGKLYEFCSSSSMLRTLERYQKCNYGAPEPNVPSREALAVELSSQQEYLKLKERYDALQRTQRNLLGEDLGPLSTKELESLERQLDSSLKQIRALRTQFMLDQLNDLQSKLADG
notes: also called SEP3 truncation mutant; source: in vitro translated (pSPUTK, Promega SP6 High Yield Expression System), used without further purification
For B3, the “stoichiometry N” value [1] was 2.

B4: SEP3^(75-178) construct (wild type) (domain or fragment, A. thaliana, UniProt O22456 75-178, looked up)
chain: YGAPEPNVPSREALAVELSSQQEYLKLKERYDALQRTQRNLLGEDLGPLSTKELESLERQLDSSLKQIRALRTQFMLDQLNDLQSKERMLTETNKTLRLRLADG
notes: cloned into pESPRIT002 (N-terminal 6x-His tag followed by a TEV site); also called SEP3 K-domain; oligomerisation domain of SEP3; source: E. coli BL21 (DE3) CodonPlusRIL, purified (Ni-Sepharose, TEV cleavage, Superdex 200 SEC); not shown: His6, N-terminal, cleaved
In the case of B4, the “stoichiometry N” value [3] is reported as 4 and 2.

B5: SEP3^(75-178) L115R (domain or fragment, A. thaliana, UniProt O22456 75-178, looked up)
chain: YGAPEPNVPSREALAVELSSQQEYLKLKERYDALQRTQRNRLGEDLGPLSTKELESLERQLDSSLKQIRALRTQFMLDQLNDLQSKERMLTETNKTLRLRLADG
notes: made with SEP3^(75-178) as the template; source: E. coli Rosetta2 (DE3) pLysS, purified (Ni-Sepharose, TEV cleavage, Superdex 200 SEC); not shown: His6, N-terminal, cleaved
B5: binds [3].

B6: SEP3^(75-178) Y105N (domain or fragment, A. thaliana, UniProt O22456 75-178, looked up)
chain: YGAPEPNVPSREALAVELSSQQEYLKLKERNDALQRTQRNLLGEDLGPLSTKELESLERQLDSSLKQIRALRTQFMLDQLNDLQSKERMLTETNKTLRLRLADG
notes: as for B5
B6 was tested, and the “stoichiometry N” value [3] was 4.

B7: SEP3^(75-178) Y98K (domain or fragment, A. thaliana, UniProt O22456 75-178, looked up)
chain: YGAPEPNVPSREALAVELSSQQEKLKLKERYDALQRTQRNLLGEDLGPLSTKELESLERQLDSSLKQIRALRTQFMLDQLNDLQSKERMLTETNKTLRLRLADG
notes: as for B5
B7 was tested, and the “stoichiometry N” value [3] was 2.

B8: SEP3^(75-178) L131V (domain or fragment, A. thaliana, UniProt O22456 75-178, looked up)
chain: YGAPEPNVPSREALAVELSSQQEYLKLKERYDALQRTQRNLLGEDLGPLSTKELESVERQLDSSLKQIRALRTQFMLDQLNDLQSKERMLTETNKTLRLRLADG
notes: as for B5
B8: binds [3].

B9: SEP3^(75-178) L135A (domain or fragment, A. thaliana, UniProt O22456 75-178, looked up)
chain: YGAPEPNVPSREALAVELSSQQEYLKLKERYDALQRTQRNLLGEDLGPLSTKELESLERQADSSLKQIRALRTQFMLDQLNDLQSKERMLTETNKTLRLRLADG
notes: as for B5
B9: binds [3].

B10: SEP3^(75-178) L135M (domain or fragment, A. thaliana, UniProt O22456 75-178, looked up)
chain: YGAPEPNVPSREALAVELSSQQEYLKLKERYDALQRTQRNLLGEDLGPLSTKELESLERQMDSSLKQIRALRTQFMLDQLNDLQSKERMLTETNKTLRLRLADG
notes: as for B5
In the case of B10, the “stoichiometry N” value [3] is reported as 2.
